Among the data in patent publication EP4342988A1 (Eberhard Karls Universität Tübingen, Medizinische Fakultät, dated 2024) are binding result and log2 (TAP-MS ratio) values, retold here.

Experiment [1] has as its target T1, CTCF (CCCTC-binding factor / Transcriptional repressor CTCF) (UniProt P49711 1-727).
T1 sequence (looked up): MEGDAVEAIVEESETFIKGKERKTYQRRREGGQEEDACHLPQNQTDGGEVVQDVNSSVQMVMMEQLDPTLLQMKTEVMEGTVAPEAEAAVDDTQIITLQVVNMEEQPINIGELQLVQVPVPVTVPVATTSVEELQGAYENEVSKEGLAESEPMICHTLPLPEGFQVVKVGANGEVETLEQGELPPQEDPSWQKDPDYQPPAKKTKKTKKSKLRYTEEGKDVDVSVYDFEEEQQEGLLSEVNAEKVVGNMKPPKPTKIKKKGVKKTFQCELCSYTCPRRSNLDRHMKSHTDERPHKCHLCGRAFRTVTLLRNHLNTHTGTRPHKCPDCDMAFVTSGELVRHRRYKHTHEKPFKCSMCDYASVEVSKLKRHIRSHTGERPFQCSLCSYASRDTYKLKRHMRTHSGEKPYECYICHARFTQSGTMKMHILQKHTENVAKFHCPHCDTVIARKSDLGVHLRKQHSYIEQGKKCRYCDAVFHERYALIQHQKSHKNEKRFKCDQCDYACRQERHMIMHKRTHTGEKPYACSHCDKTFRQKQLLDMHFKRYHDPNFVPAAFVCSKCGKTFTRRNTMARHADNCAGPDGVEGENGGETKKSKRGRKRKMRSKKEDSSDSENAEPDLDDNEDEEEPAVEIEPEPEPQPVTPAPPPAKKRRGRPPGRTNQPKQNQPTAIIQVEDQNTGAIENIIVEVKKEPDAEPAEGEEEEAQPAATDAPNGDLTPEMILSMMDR
The experiment can be described thus: anti-Flag pull-down of tagged THAP1 from HEK-293 nuclear extract (TAP), Western blot. (In western blotting, separated proteins are transferred to a membrane and probed.)

The target in experiment [2] is 149 proteins which strongly interact with THAP1. The experiment can be described thus: TAP-MS, anti-Flag pull-down of tagged THAP1 against empty vector, LC-MS/MS peak area ratios.

B1: Strep/FLAG tagged THAP1 protein (other, human, UniProt Q9NVV9 1-213, looked up)
chain: MVQSCSAYGCKNRYDKDKPVSFHKFPLTRPSLCKEWEAAVRRKNFKPTKYSSICSEHFTPDCFKRECNNKLLKENAVPTIFLCTEPHDKKEDLLEPQEQLPPPPLPPPVSQVDAAIGLLMPPLQTPVNLSVFCDHNYTVEDTMHQRKRIHQLEQQVEKLRKKLKTAQQRCRRQERQLEKLKEVVHFQKEKDDVSERGYVILPNDYFEIVEVPA
notes: Bait of the TAP-MS pull-down from nuclear extract of HEK-293 cells on anti-Flag M2 agarose, with benzonase added; also called wild-type THAP1; hTHAP1; not shown: Strep/FLAG tag
As for B1, the binding result in experiment [1] is “binds”. Also, the log2 (TAP-MS ratio) in experiment [2] stood at 15 log2.
